The subject of data set [1] is T1, VEGF (Homo sapiens ?), P15692-4.
T1 sequence: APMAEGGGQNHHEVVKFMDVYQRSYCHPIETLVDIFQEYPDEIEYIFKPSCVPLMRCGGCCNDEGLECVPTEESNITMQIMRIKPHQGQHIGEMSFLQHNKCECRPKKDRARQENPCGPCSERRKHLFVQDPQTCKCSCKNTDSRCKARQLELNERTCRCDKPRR
Kind of data set: FP filter. The settings on record: nitrocellulose dot blot.

Data set [2] has as its target PDGF-BB (Rattus norvegicus) (UniProt Q05028). In words: competition. The conditions noted are these: DNA with s1 fU6 fC8 mG9; s2 mG5 mG7 fU10 fC11 mA12; s3 fC5 fC6 fU7 mG8 (f=2'-F, m=2'-OMe); HEG spacers between segments; 3'-inverted dT; equal affinity to ….
The target of the next data set is PDGF-AB (Homo sapiens) (UniProt P04085+P01127). In words: competition. The settings on record: DNA with s1 fU6 fC8 mG9; s2 mG5 mG7 fU10 fC11 mA12; s3 fC5 fC6 fU7 mG8 (f=2'-F, m=2'-OMe); HEG spacers between segments; 3'-inverted dT; dot blot; p348 prints uM, legend prints pM.
The subject of data set [3] is PDGF-AA (Homo sapiens), P04085-2. Kind of data set: competition. The settings on record: PEG-conjugated ARC513 (PEG size per image, not given); 2'-OMe as ARC513; PEG spacers; figure legend states no binding to PDGF-AA.

These results are taken from patent publication US20090053138.

The Kd is a measure of binding affinity in units of concentration.

Sequence of PDGF-BB (Rattus norvegicus) (Q05028 74-182): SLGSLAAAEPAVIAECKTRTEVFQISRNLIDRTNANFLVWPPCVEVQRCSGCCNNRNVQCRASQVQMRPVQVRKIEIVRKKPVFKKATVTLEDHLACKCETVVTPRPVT
Sequence of PDGF-AB (Homo sapiens) (P01127 82-190, chain 2 of 2, other chains not shown): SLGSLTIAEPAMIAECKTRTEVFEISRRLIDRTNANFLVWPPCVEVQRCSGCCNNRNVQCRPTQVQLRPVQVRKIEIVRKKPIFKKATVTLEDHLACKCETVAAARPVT

In turn, AUGCAGUUUGAGAAGUCGCGCAU [ARC245] showed a Kd in data set [1] (all 2'-OMe) of 2 nM.

Turning to CAGGCUACGCGTAGAGCAUCATGATCCUG [ARC126], the Kd turned out to be 0.1 nM in data set [2] and 0.0001 µM with PDGF-AB (Homo sapiens).

As for “CAGGCTACGUGCAGUUUGAGAAGUCGCGCACGTAGAGCATCAGAAATGATCCTG [TK.131.012.B]”, the Kd in data set [1] (ARC126 part deoxy, ARC245 part 2'-OMe (first mA-mU pair removed), dGdAdAdA linker) was found to be 5 nM. “CCCAGGCTACGCGTAGAGCAUCATGATCCTGGG [ARC594 (AX102)]” returned a Kd in data set [3] of 2.6 nM. “CAGGCTACGAUGCAGUUUGAGAAGUCGCGCAUCGTAGAGCATCAGAAATGATCCTG [TK.131.012.A]”: in data set [1] (ARC126 part deoxy, ARC245 part 2'-OMe, dGdAdAdA linker), the Kd was 10 nM.
